Tested on: DNA gyrase
Assay: single-molecule T7 transcription elongation rate titrated with gyrase
Settings: multiple biotin (topologically constrained); not given in the held text

**Q.** How did the Kd turn out when “nuoB-N template with multiple biotins (~12 kb)” was run?
**A.** 100 nM
